Laboratory results as given in patent publication US20110311550A1.

Columns and labels:
Experiment in all cases: ELISA, lectin-captured E1E2 lysate, Ab 1 ug/ml
[1] = biological target: E1E2 complex (H77) with E1 mutation Q302A (HCV genotype 1a, isolate H77) (UniProt P27958)
[2] = biological target: E1E2 complex (H77) with E1 mutation I212A (HCV genotype 1a, isolate H77) (UniProt P27958)
[3] = biological target: E1E2 complex (H77) with E1 mutation N305A/N325A (HCV genotype 1a, isolate H77) (UniProt P27958)
[4] = biological target: E1E2 complex (H77) with E1 mutation R195A (HCV genotype 1a, isolate H77) (UniProt P27958)
[5] = biological target: E1E2 complex (H77) with E2 mutation E637A (HCV genotype 1a, isolate H77) (UniProt P27958)
[6] = biological target: E1E2 complex (H77) with E1 mutation H222A (HCV genotype 1a, isolate H77) (UniProt P27958)
[7] = biological target: E1E2 complex (H77) with E1 mutation G354A (HCV genotype 1a, isolate H77) (UniProt P27958)
[8] = biological target: E1E2 complex (H77) with E1 mutation T314A (HCV genotype 1a, isolate H77) (UniProt P27958)
[9] = biological target: E1E2 complex (H77) with E2 mutation F447A (HCV genotype 1a, isolate H77) (UniProt P27958)
[10] = biological target: E1E2 complex (H77) with E1 mutation W353A (HCV genotype 1a, isolate H77) (UniProt P27958)
[11] = biological target: E1E2 complex (H77) with E1 mutation N196A/N234A (HCV genotype 1a, isolate H77) (UniProt P27958)
[12] = biological target: E1E2 complex (H77) with E1 mutation L258A (HCV genotype 1a, isolate H77) (UniProt P27958)
[13] = biological target: E1E2 complex (H77) with E1 mutation D346A (HCV genotype 1a, isolate H77) (UniProt P27958)
[14] = biological target: E1E2 complex (H77) with E1 mutation S198A (HCV genotype 1a, isolate H77) (UniProt P27958)
[15] = biological target: E1E2 complex (H77) with E1 mutation V266A (HCV genotype 1a, isolate H77) (UniProt P27958)
[16] = biological target: E1E2 complex (H77) with E1 mutation N325A (HCV genotype 1a, isolate H77) (UniProt P27958)
[17] = biological target: E1E2 complex (H77) with E2 mutation A439G (HCV genotype 1a, isolate H77) (UniProt P27958)
[18] = biological target: E1E2 complex (H77) with E1 mutation H352A (HCV genotype 1a, isolate H77) (UniProt P27958)
[19] = biological target: E1E2 complex (H77) with E1 mutation P224A (HCV genotype 1a, isolate H77) (UniProt P27958)
[20] = biological target: E1E2 complex (H77) with E1 mutation S273A (HCV genotype 1a, isolate H77) (UniProt P27958)
[21] = biological target: E1E2 complex (H77) with E1 mutation P228A (HCV genotype 1a, isolate H77) (UniProt P27958)
[22] = biological target: E1E2 complex (H77) with E1 mutation F293A (HCV genotype 1a, isolate H77) (UniProt P27958)
[23] = biological target: E1E2 complex (H77) with E1 mutation R259A (HCV genotype 1a, isolate H77) (UniProt P27958)
[24] = biological target: E1E2 complex (H77) with E1 mutation F291A (HCV genotype 1a, isolate H77) (UniProt P27958)
[25] = biological target: E1E2 complex (H77) with E1 mutation V194A (HCV genotype 1a, isolate H77) (UniProt P27958)
[26] = biological target: E1E2 complex (H77) with E1 mutation R296A (HCV genotype 1a, isolate H77) (UniProt P27958)
[27] = biological target: E1E2 complex (H77) with E1 mutation H298A (HCV genotype 1a, isolate H77) (UniProt P27958)
[28] = biological target: E1E2 complex (H77) with E1 mutation D206A (HCV genotype 1a, isolate H77) (UniProt P27958)
[29] = biological target: E1E2 complex (H77) with E1 mutation M318A (HCV genotype 1a, isolate H77) (UniProt P27958)

Substance: mouse anti-E1 MAb A4 (antibody)
- Binding relative to wt (%) [1]: 215%
- Binding relative to wt (%) [2]: 125%
- Binding relative to wt (%) [3]: 114%
- Binding relative to wt (%) [4]: 197%
- Binding relative to wt (%) [5]: 122%
- Binding relative to wt (%) [6]: 132%
- Binding relative to wt (%) [7]: 105%
- Binding relative to wt (%) [8]: 99%
- Binding relative to wt (%) [9]: 98%
- Binding relative to wt (%) [10]: 75%
- Binding relative to wt (%) [11]: 71%
- Binding relative to wt (%) [12]: 99%
- Binding relative to wt (%) [13]: 87%
- Binding relative to wt (%) [14]: 61%
- Binding relative to wt (%) [15]: 96%
- Binding relative to wt (%) [16]: 83%
- Binding relative to wt (%) [17]: 119%
- Binding relative to wt (%) [18]: 85%
- Binding relative to wt (%) [19]: 99%
- Binding relative to wt (%) [20]: 38%
- Binding relative to wt (%) [21]: 171%
- Binding relative to wt (%) [22]: 87%
- Binding relative to wt (%) [23]: 97%
- Binding relative to wt (%) [24]: 67%
- Binding relative to wt (%) [25]: 160%
- Binding relative to wt (%) [26]: 108%
- Binding relative to wt (%) [27]: 164%
- Binding relative to wt (%) [28]: 81%
- Binding relative to wt (%) [29]: 97%
